B1: 989 (protein, listed as Rhodothermus marinus)
chain: MVLLFLGGAKEGAAQSNQALQVASLRTEYLVNPIGIEVRQPRLSWQLQSDRRDVRQVAYQIQVATSREALARGRDLVWDSGRVESDQSVFVPYGGPALQRRQRYYWRVRVWDNHGRSSAWSEPAFWEMGLLSPDEWRAQWITYNWEEDTSQPQPAPMLRRTFRVEGRVRRARLYITSLGLYEAHLNGRRVGDQLFTPGWTSYHHRLQYQTYDVTDLLRPGENALGVILGDGWYRGYLTWSVRRNVYGDRLALLAQLEITYEDGRTQVVTSDPDWKATTGPIRMSDIYMGEIYDARLEKEGWTEPGYDDSDWRGVRVLEHPKDILIAPIGPPVRRIQEIRPVAILYTPAGDTVVDMGQNMVGWVRLRVRGPAGTVVTLRHAEVLDKHGNFYTENLRRARQTDQYILKGEGEEVFEPHFTFHGFRYVAVSGYPGELTPEAITGIVIHSAFEPTGTWVSSDSLLNRLQLNIQWGMKGNFLDVPTDCPQRDERLGWTGDAQVFARTAMFNGLVGGFFTKWLGDVAADQSPEGAVPHVVPNVLPSFAGRFPGGATGWADAAVVIPWTMYQVYGDRRILEVQYPSMKAWVEYMRREAGDDLIWDTGFHFGDWLAFVPEENVRRAYPGATTGRDFLATAYFAYSTRLLAQAAEVIGKTDEARHYRQLYEAIREAFNREFVTPNGRVAQATQTAYTLAIQFDLLPEHLRAEAGRRLAEDVRAHNMHLTTGFLGTPQLLHALSNTGQLDVAYTLLRQTTYPSWLYQVKMGATTMWERWDSIKPDSTFQDPSMNSFNHYAYGSVGDWMYRVVAGIDTETPGYQRLRIAPQPGGGLKWVQARYHSLYGEVASSWELVDPQTFVLEVTIPPNTTATVRLPGAQLASVQEGRQPVQSAAGVHRAYQDGADVVVEVGSGTYRFTYSPSAELVRRIQTQPEVGQPVTMSF
B2: 1041 (protein)
chain: MRAIRLRTEYLTEPLGLGITAPRLYWNADGGLRQTAYQVVARRGGETVWDTGKVASSRMTHVRYEGVPLGSRDRVDWSVVLWDEAGAAGPPAESWFELGLLDPADWTAEWITGDYTPEPDVRYPVDHFRRDFRVREPVLAARLYITAAGVYEAVLNGEPVSEARLGPGATDYRHRLHYQTFDVTSLLAADNVLEVRLADGWYRGSLGAFGATHVFGRETRLLAQLELTYPDGSTETVGSDERFRWSDDGPVRFADLQDGEVYDARLAPSYSGHARITTETMIPTAADNVPVTEHERFPARLLTTPSGARVLDFGQNLAGFVAFTVSGRAGQRLTLRLGEILDGAGEFTQRNFQLRKPVHEFGRDVEILLLTGQESEIKGELQPTPKQEVVFTASGGTDHYVTRFAVFGFRYALVETDLDIDPADFEAIAVYSAMEQTGTCVTSHEGVNRFLENTRWSMKGNFLDVPTDCPTRERLGWTGDAQVFFDTAAYLMDVGAFFRKWLRDVRDGQLADGKLSAVIPYNGTSMLYDTTGGSVGWADAVVLIPYRYWKRYGDESILRDCYDAMRRYAMFMITNAGPLDPEAAADNPHARYLYEKGVHLGDWLEAAEFRDPSPGRTPMPEEATAYLHYTMTHLAEIATVLGETADADLFAEYAQGAKAAYTHQFLRDGTLDTDRQAKLVRPLALGLADGDVKRRLEDRLVQAVKNRDFHVNTGFLSTPFVLPTLTAAGHPEIAYRMLDNEDAPSWLAEVKAGATTVWEDWEGKESRNHYSPGAVCQWLFDTVAGLRVTGENHFTIAPVPGGSLTSAQARYTSVYGTVASSWTRTGTDLHLTVTLPPNTTADVRLPNGTEHVVGPGTHEYTA
modifications: Frankia inefficax

Key:
Format in all cases: biochemical, Quillaja saponaria
[1] = Experiment 6-1: screening of rhamnosidases for derhamnosylation of saponins in treated bark extract (2%), QS-17 2296 to QS-18 2150 (PAR %); details: TBE 2%, pH 7.5, 30 degC, 18 h; TIC peak area ratio percent of rhamnosylated starting saponin to derhamnosylated product, LCMS/MS; negative controls 4.876, 5.225
[2] = Experiment 6-2: screening of rhamnosidases for derhamnosylation of saponins in treated bark extract (25%), relative % of Left, Middle and Right Peak by UV HPLC; details: TBE 25%, pH 7.4, 19.5 h; for Left Peak: mainly QS-17 family, negative control 24%; for Middle Peak: mainly QS-18 and desglucosyl-QS-17 family, negative control 50%; for Right Peak: mainly QS-21 family, negative control 26%
[3] = Experiment 6-1: screening of rhamnosidases for derhamnosylation of saponins in treated bark extract (2%), desglucosyl-QS-17 2134 to QS-21 1988 (PAR %); details: TBE 2%, pH 7.5, 30 degC, 18 h; TIC peak area ratio percent, LCMS/MS; negative controls 2.719, 2.158
[4] = Experiment 6-1: specificity of rhamnosidases towards other rhamnose residues (C3 saccharide rhamnose, C28 saccharide rhamnose); details: TBE 2%, pH 7.5, 30 degC, 18 h; LCMS/MS; negative controls 0.18, 0.17
[5] = Experiment 6-1: screening of rhamnosidases for derhamnosylation of saponins in treated bark extract (2%), QS-17 2310 to QS-18 2164 (PAR %); details: TBE 2%, pH 7.5, 30 degC, 18 h; TIC peak area ratio percent, LCMS/MS; negative controls 3.061, 2.429
[6] = Experiment 6-3: screening of rhamnosidases for derhamnosylation of saponins in crude bark extract (80%), relative % of Left, Middle and Right Peak by UV HPLC; details: CBE 80%, pH 7.4, 30 degC, 19.5 h; for Left Peak: mainly QS-17 family, negative control 27%; for Middle Peak: mainly QS-18 and desglucosyl-QS-17 family, negative control 48%; for Right Peak: mainly QS-21 family, negative control 26%
Method: Selected variants were expressed and lysed as in the method of experiment 6-1.
Crude bark extract (CBE) solution was adjusted to pH 7.4 by addition of NaOH (2M). 20 uL clarified lysate was transferred into fresh 96 well PCR plates. 80 uL CBE solution (pH 7.4) was added to each well of lysate to a final concentration of 80%. Plates were incubated at 30 degC with shaking for 19.5 h.
Quenched with 100 uL MeCN+2% AcOH and shaken at room temperature for 10 mins prior to centrifugation (10 min, 4 degC) to remove particulates. Samples were analysed by UV HPLC using method of Experiment 4-4.
Three key peaks of interest are apparent using this chromatography: Left Peak (retention time approximately 2.30-2.35 min) comprising mainly QS-17 family components; Middle Peak (retention time approximately 2.37-2.42 min) comprising mainly QS-18 family components and desglucosyl-QS-17 family components; and Right Peak (retention time approximately 2.44-2.50 min) comprising mainly QS-21 family components. Peak identity was supported by MS/MS.
Enzyme mediated hydrolysis of the alpha-O-rhamnosylation at the C2 position of the arabinofuranose moiety of QS-17 family components leads to a decrease in Left Peak and an increase in Middle Peak due to formation of QS-18 family components. Enzyme mediated hydrolysis of the alpha-O-rhamnosylation at the C2 position of the arabinofuranose moiety of desglucosyl-QS-17 family components leads to a decrease in Middle Peak and an increase in Right Peak due to formation of QS-21 family components.
The relative percentage of each peak was determined. A decrease in Left Peak and a concomitant increase in Middle Peak and Right Peak is observed for enzymes active under these conditions.

Molecule	QS-17 (PAR %) [1] [%]	Left Peak [2] [%]	Middle Peak [2] [%]	Right Peak [2] [%]	Peak75 (PAR %) [3] [%]	ratio PP/QS-21 [4]	Peak57 (PAR %) [5] [%]	Left Peak [6] [%]	Middle Peak [6] [%]	Right Peak [6] [%]
B1	0.516	19	54	26	0.478	0.18	0.305	29	43	27
B2	0.507	15	55	30	0.000	0.16	0.000	25	48	27
